Patent US20210261685A1 (Alector, published 2021)
Positions count from the first letter of the chain named.

T1: human MerTK endogenously expressed on cells (SK-MEL-5 cells; human macrophages) (human, UniProt Q12866 21-999)
T1 sequence: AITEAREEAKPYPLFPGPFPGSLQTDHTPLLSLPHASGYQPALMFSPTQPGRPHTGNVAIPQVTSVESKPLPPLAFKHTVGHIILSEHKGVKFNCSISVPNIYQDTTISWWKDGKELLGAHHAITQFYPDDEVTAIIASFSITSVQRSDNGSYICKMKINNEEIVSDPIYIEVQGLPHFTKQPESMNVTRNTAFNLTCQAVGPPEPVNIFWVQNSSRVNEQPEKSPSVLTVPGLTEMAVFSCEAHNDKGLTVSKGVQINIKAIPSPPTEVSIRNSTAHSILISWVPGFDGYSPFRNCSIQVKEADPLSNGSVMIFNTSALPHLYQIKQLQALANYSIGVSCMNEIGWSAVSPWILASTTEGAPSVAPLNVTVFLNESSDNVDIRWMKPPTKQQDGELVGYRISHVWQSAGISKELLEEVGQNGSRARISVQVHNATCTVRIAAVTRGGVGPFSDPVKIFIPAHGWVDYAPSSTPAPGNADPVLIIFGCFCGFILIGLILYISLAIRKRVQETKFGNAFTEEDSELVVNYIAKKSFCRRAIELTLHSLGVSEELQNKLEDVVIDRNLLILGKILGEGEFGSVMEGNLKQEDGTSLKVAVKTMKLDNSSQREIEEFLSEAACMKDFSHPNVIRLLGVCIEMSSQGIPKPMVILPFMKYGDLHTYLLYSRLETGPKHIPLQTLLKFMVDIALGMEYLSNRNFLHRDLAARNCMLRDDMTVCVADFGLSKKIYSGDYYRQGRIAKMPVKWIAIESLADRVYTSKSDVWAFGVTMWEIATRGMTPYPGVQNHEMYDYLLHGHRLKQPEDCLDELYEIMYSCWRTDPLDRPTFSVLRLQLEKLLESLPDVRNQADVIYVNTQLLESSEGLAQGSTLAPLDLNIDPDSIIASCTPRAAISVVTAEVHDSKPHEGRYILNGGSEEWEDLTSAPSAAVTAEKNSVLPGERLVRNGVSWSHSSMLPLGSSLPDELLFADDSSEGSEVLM

T2: Recombinant human MerTK human Fc Chimera protein (R&D systems, Cat #391-MR-100) (human, UniProt Q12866 26-499, limits assumed)
T2 construct: Bought; also called recombinant human MerTK protein; MerTK-Fc
T2 sequence: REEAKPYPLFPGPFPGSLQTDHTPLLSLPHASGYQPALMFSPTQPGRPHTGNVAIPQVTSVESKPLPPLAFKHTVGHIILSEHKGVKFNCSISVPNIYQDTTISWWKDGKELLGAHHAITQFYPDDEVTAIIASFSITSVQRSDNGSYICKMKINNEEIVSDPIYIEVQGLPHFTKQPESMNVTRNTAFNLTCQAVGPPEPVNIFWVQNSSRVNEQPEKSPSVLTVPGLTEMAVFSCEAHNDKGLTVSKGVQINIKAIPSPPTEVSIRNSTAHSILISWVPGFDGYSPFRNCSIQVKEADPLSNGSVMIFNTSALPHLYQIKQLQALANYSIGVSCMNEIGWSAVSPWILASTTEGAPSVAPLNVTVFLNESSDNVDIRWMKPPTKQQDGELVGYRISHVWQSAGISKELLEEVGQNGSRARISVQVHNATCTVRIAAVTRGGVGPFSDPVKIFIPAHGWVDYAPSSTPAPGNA

B1: MTK-16 (antibody, human IgG1, V domains shown)
VH: LIQLVQSGPELKKPGETVKISCKASGYTFTNHGMNWVKQDPGKGLKWMGWINTYTGEPTYADDFKGRFVFSMETSASAAFLQINNLKNEDTATYFCARKGVTAARYFDYWGQGTTLTVSS
VL: DIVMTQSPKFMSTSVGDRVSITCKASQNVRTAVAWYKKKPGQSPKALINLASNRHTGVPDRFTGSGSGTDFTLTISNVQSEDLADYFCLQHWNYPLTFGGGTKLEIK
B2: MTK-33 (antibody, human IgG1, V domains shown)
VH: QVQLQQPGPELVRPGTSVKLSCKASGYTFTSYWMHWIKQRPGQGLEWIGVIDPSDNYINYNQKFKGKATLTVDTSSSTAYLQLSSLTSEDSAVYYCAREAGTRGYFDYWGQGTTLTVSS
VL: SIVMTQTPKFLLVSAGDRVIITCKASQSVSNTVAWYQQKPGQSPKLLIYYASNRYTGVPDRFTGSGYGTDFTFTISTVQAEDLAVYFCQQDYRSPFTFGSGTQLEMK
B3: MTK-19 (antibody, human IgG1, V domains shown)
VH: EVQLQQSGPELVKPGASVKISCKTSGYTFTEYTMHWVKQSHGKSLEWLGGFNPNNVITSYNQRFQGRATLTVDKSSSTAYMELRSLTSDDSAVYYCTRGDLLWSLLLPGNYFDYWGQGTTLTVSS
VL: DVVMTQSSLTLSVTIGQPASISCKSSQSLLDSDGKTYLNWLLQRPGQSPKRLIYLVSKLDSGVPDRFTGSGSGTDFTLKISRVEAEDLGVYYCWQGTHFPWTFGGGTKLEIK
B4: MTK-11 (antibody, human IgG1, V domains shown)
VH: QVQLKQSGPGLVQPSQSLSITCTVSGFSLTDYGVHWVRQSPGKGLEWLGVIWSSGTTDYNEAFISRLSISKDNSKSHVFFKMNSLQAIDTAIYYCARKGHDPYAMDYWGQGTSVTVSS
VL: QIVLTQSPAIMSASLGERVTMTCTASSSISSSYFHWYQQKPGSSPKLWIYSTSNLPSGVPARFSGSGSGTSYSLTISSMEAEDAATYYCHQYYRSPLTFGAGTKLELK
B5: MTK-29 (antibody, human IgG1, V domains shown)
VH: QIQLVQSGPELKKPGETVKISCKSSGFTFTTYGMSWVKQAPGKGLKWMGWINTYSGVPTYTDDFKGRFAFSLETSASTASLQINNLKNEDTATYFCARYTNYGYFDYWGQGTTLTVSS
VL: QIVLSQSPAILSASPGEKVTMTCRATSSVGYMHWYQQKPGSSPKPWIYATSNLASGVPARFSGSGSGTSYSLTISRVEAEHAATYYCQQWGSNPFTFGSGTKLEIK
B6: MTK-15 (antibody, human IgG1, V domains shown)
VH: QIQLVQSGPELKKPGETVKISCKASGYTFTNYGVHWVKQAPGKGLKWMGWINTYTGEPTYADDFKGRFAFSLETSASTAYLQINNLKNEDMATYFCARGNRYAYMDYWGQGTSVTVSS
VL: B5 VL with T26S, G30S, P39S, H81D, G91S, F95R, S99G
B7: MTK-20 (antibody, human IgG1, V domains shown)
VH: QIQLVQSGPELKKPGETVKISCKASGYTFTNYGMTWVKQAPGKGLKWMGWINTYTGEPTYADDFKGRFALSLETSASTAYLQINNLKNEDTATYFCARGGGRLGLRPLDYWGQGTTLTVSS
VL: DIQMTQTTSSLSASLGDRVTISCRASQDINNYLNWYQQKPDGTVKLLIYYTSRLHSGVPSRFSGSGSGTDYSLTISNLEQEDIATYFCQQGNTLPWTFGGGTKLEIK
B8: MTK-18 (antibody, human IgG1, V domains shown)
VH: B7 VH with N31H, L70F, R102Q
VL: B7 VL with I21F, D28A, N30S
B9: MTK-17 (antibody, human IgG1, V domains shown)
VH: QIQLVQSGPELKKPGETVKISCKASGYTFTNFGMNWVKQAPGKGLKWMGWINTYTGEPTYADDFKGRFAFSLETSASTAYLQINNLKNEDTATYFCSRGAVLRAGAMDCWGQGTSVTVSS
VL: DIQMTQSSSYLSVSLGGRVTITCKASDHINNWLAWYQQKPGNAPRLLISGATSLETGVPSRFSGSGSGKDYTLSITSLQTEDVATYYCQQYWSTPRTFGGGTKLEIK
B10: MTK-03 (antibody, human IgG1, V domains shown)
VH: DVQLQESGPGLVKPSQSLSLTCSVTGYSITSGYYWNWIRQFPGNTLEWMGYMSFDGDNKFNPSLKNRISITRDTSKNQFFLRLNSVTTEDTATYYCARGGYNYGSTEANWGQGTLVTVSA
VL: QIVLTQSPAIMSAFPGEKVTITCSASSSVNYMHWFQQKPGTSPKLWIYSTSNLASGVPARFSGSGSGTSYSLTISRMEAEDAATYYCQQRSSYPFTFGSGTKLEIK
B11: MTK-07 (antibody, human IgG1, V domains shown)
VH: B10 VH with A120T
VL: B10 VL with N30T, Y48F
B12: MTK-12 (antibody, human IgG1, V domains shown)
VH: QVQLQQSGPQLVRPGASVKISCKASGYSFTSHWMHWVKQRPGQGLEWIGMIDPSDGESRLNQKFKDKATLTVDKSSSTAYMQLSSPTFEDSAVYYCARGIYYYGITYAMDYWGQGTSVTVSS
VL: QIVLTQSPAIMSASPGEKVTMTCSASSSVSYMYWYQQKPRSSPRLLIYDTSNLASGVPVRFSGSGSGTSYSLTISRMEAEDAATYYCQQWSSYPLTFGAGTKLELK

biological target: T1, human MerTK endogenously expressed on …; assay: cell-based or functional assay

| Gas6-mediated pAKT activity, average IC50, human M2c macrophages [nM] | Binder |
| --- | --- |
| 7.74 | B1 |
| 4.28 | B2 |
| 0.902 | B3 |
| 2.63 | B4 |
| 5.37 | B5 |
| 2.8 | B6 |
| 1.48 | B7 |
| 1.3 | B8 |
| 3.42 | B9 |
| 0.019 | B10 |
| 0.371 | B11 |
| 1.28 | B12 |

biological target: T1, human MerTK endogenously expressed on …; assay: flow cytometry on SK-MEL-5 cells, Prism fit
Experimental: To determine whether recombinant anti-human MerTK antibodies of the present disclosure bind to human MerTK endogenously expressed on SK-MEL-5 cells and to CHO cells overexpressing mouse MerTK (CHO-muMerTK OE cells), the following experiments were performed. SK-MEL-5 cells and CHO-muMerTK OE cells were plated at 40,000 cells/well. Anti-MerTK antibodies were titrated to a final concentration range of between 66.6 nM to 4 pM and then added to the cells. After 30 min on ice, cells were washed and then stained with APC-conjugated mouse anti-human Kappa antibody (Southern Biotech Cat #9230-11, Birmingham, Ala.) and a viability die (Life Technologies) in the presence of Fc block solution on ice for 30 minutes, and then washed twice with cold FACS buffer (2% FBS in PBS). Cells were fixed with 4% paraformaldehyde in PBS. Stained cells were acquired on a BD FACS Canto II cytometer and the mean fluorescence intensity (MFI) was calculated with FlowJo software and K value was calculated with Prism software. […] A lower Kd value reflects higher binding of antibody to cells.

| Kd [nM] | Binder |
| --- | --- |
| 1.66 | B1 |
| 0.93 | B2 |
| 3.07 | B3 |
| 3.54 | B4 |
| 0.14 | B5 |
| 0.19 | B6 |
| 0.11 | B7 |
| 0.38 | B8 |
| 12.7 | B9 |
| 2.64 | B10 |
| 3.21 | B11 |
| 0.009 | B12 |

biological target: T2, Recombinant human MerTK human Fc …; assay: competition ELISA, His-Gas6 on captured MerTK-Fc
Experimental: Rabbit anti-human IgG polyclonal antibody (Jackson ImmunoResearch, Cat #309-005-008) was captured to a high-protein binding plate at 2 μg/ml 4° C. overnight. After washing with 0.05% Tween20 in PBS three times, 5% BSA in PBS was added for 1 hour. Recombinant human MerTK human Fc Chimera protein (R&D systems, Cat #391-MR-100) was added at 2 μg/ml for 1 hour and the plates were then washed. Anti-MerTK antibodies were titrated to final concentration range of between 66.6 nM to 4 pM and then 40 μl of serially diluted antibody and 40 μl of His tag-conjugated recombinant Gas6 protein (R&D systems, Cat #885-GSB-050) at 3 μg/ml or His tag-conjugated recombinant ProS protein (R&D systems, Cat #9489-PS-100) at 20 μg/ml. After a further incubation for 1 hour, plates were washed and incubated for 1 hour with HRP-conjugated anti-6×His tag antibody (Abcam, Cat #ab1187). Plates were then washed and an HRP substrate (TMB) was used to develop the plates. After sufficient color change was observed, the reaction was stopped by adding 50 μl 2N H₂SO₄ and the OD was measured using a spectrophotometer (BioTek).
From these experiments, IC50 values [nM] were determined using OD450 values obtained from the dose-response curves analyzed with Prism software. Table 14 and Table 15 show IC50 values determined for anti-MerTK antibody blocking of Gas6 ligand binding and ProS ligand binding to MerTK. […] Dashes indicate lack of significant blocking; “n.a.” indicates data not available.

| IC50 [nM] | Binder |
| --- | --- |
| 6.32 | B1 |
| 4.96 | B7 |
| 4.22 | B8 |
| 14.5 | B9 |
| 8.53 | B10 |
| 7.97 | B11 |
| 26 | B12 |
